Substrate in data set [1]: O=C(O)O
The experiment in a line: purified protein. As to conditions: YRDC alone, Tricine-NaOH pH 8.5, 10 mM MgCl2, ATP, L-Thr, 37 °C, bicarbonate 10-80 mM.

Substrate in data set [2]: Nc1ncnc2c1ncn2[C@@H]1O[C@H](COP(=O)(O)OP(=O)(O)OP(=O)(O)O)[C@@H](O)[C@H]1O
The experiment in a line: purified protein. Format: biochemical, Homo sapiens. As to conditions: YRDC alone, Tricine-NaOH pH 8.5, 10 mM MgCl2, [14C]L-Thr, NaHCO3, 37 °C, ATP 0.1-0.8 mM.

B1: YRDC (Homo sapiens) (protein)
chain: SVGLSEGPAGSRSGRLFRPPSPAPAAPGARLLRLPGSGAVQAASPERAGWTEALRAAVAELRAGAVVAVPTDTLYGLACAASCSAALRAVYRLKGRSEAKPLAVCLGRVADVYRYCRVRVPEGLLKDLLPGPVTLVMERSEELNKDLNPFTPLVGIRIPDHAFMQDLAQMFEGPLALTSANLSSQASSLNVEEFQDLWPQLSLVIDGGQIGDGQSPECRLGSTVVDLSVPGKFGIIRPGCALESTTAILQQKYGLLPSHASYL
notes: recombinant from E. coli Rosetta(DE3), His6-SUMO tag removed
For orientation: Km means the substrate concentration at which the rate is half of its maximum. B1: the Km in “purified protein [1]” is given as 13 mM. In addition, in “purified protein [2]”, the Michaelis-Menten constant (Km) was 170 ± 220 µM and the kcat result was “(3.9 ± 2.23) × 10^-2 s^-1”.

For the origin of these results see paper PMC5951830, “CO2-sensitive tRNA modification associated with human mitochondrial disease” (Nature Communications, 2018).
